From patent US20240002497A1 (Merck Sharp & Dohme, published 2024) come the findings set out here.

Residue numbers refer to the chain shown, from its start. Names and notes keep the numbering of the source. Where two headings read alike, the source gives them in different places.

The target in assay [1] is T1, muNav1.7α (murine, UniProt Q62205 1-1984).
T1 construct: HEK JmpIn cells; also called murine Nav1.7α
Put plainly: binding FACS, HEK JmpIn. As for the experimental part: (§1) Binding of the ISVDs to cell-expressed Nav1.7α was detected via murine anti-Flag (Sigma, catalog #F1804). Briefly, cells were resuspended in FACS buffer (PBS, 10% FBS, NaN₃) and transferred to a 96-well V-bottom plate at 1×10^5 cells/well. Purified FLAG3-tagged ISVD was diluted in FACS buffer and added to the cells for 30 minutes at 4° C. […] Prior to the read-out, the samples were resuspended in 1 μg/mL propidium iodide (Sigma, catalog #P4170) to exclude dead cells. Between each step, the cells were centrifuged for 5 minutes at 200 grams and washed with 100 μL/well FACS buffer.

Assay [2] addresses T1, muNav1.7α. Put plainly: binding FACS, HEK JmpIn. This is another data set of the same source.
Assay [3] addresses T2, huNav1.7α + β1-β2-β3 (human, UniProt Q15858 1-1988; A5A6L6 19-218; O60939 30-215; Q2KI11 23-215).
T2 construct: also called huNav1.7-beta1-beta2-beta3; huNav1.7-β1-β2-β3
Put plainly: binding FACS, CHO FlpIn. As for the experimental part: as §1

Assay [4] addresses T3, rhNav1.7α + β1-β2-β3 (rhesus monkey).
T3 construct: also called rhNav1.7-beta1-beta2-beta3; rhNav1.7-β1-β2-β3
Put plainly: binding FACS, CHO FlpIn. Here is the method: as §1

For assay [5], the target named is T2, huNav1.7α + β1-β2-β3. Description: binding FACS, CHO FlpIn. A digest of the protocol:
(§2)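 Cells are first suspended in FACS buffer at 1×10^5 per well. Next, FLAG3-tagged ISVD is added for 30 minutes at 4° C, and binding is then detected with murine anti-Flag. Finally, samples go into 1 μg/mL propidium iodide before flow cytometry.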
The source holds these as a separate data set.

For assay [6], the target named is T3, rhNav1.7α + β1-β2-β3. Description: binding FACS, CHO FlpIn. An outline of the steps:
as §2
This is another data set of the same source.

The target of assay [7] is T3, rhNav1.7α + β1-β2-β3. Put plainly: cell-based or functional assay.
The target of assay [8] is huNav1.7α + β1 (human). Description: cell-based or functional assay.
For assay [9], the target named is T3, rhNav1.7α + β1-β2-β3. Description: cell-based or functional assay. The source holds these as a separate data set.
Assay [10] addresses huNav1.7α + β1 (human). Description: cell-based or functional assay. The source holds these as a separate data set.
Assay [11] concerns the target T4, huNav1.7α + β1 (human Nav1.7α co-expressed with Navβ1) (human, UniProt Q15858 1-1988; Q07699 19-218). Description: cell-based or functional assay.
Assay [12] deals with T5, huNav157 chimera 14 (human).
T5 construct: Chimera without β subunits; also called Nav157ch14
Description: binding FACS, HEK FlpIn cells.

Assay [13] concerns the target T6, huNav157 chimera 14 + β1-β2-β3 (human).
T6 construct: Chimera of huNav1.7α (extracellular loops and transmembrane helices) and huNav1.5α (intracellular loops); also called Nav157ch14-β1-β2-β3; huNav157 chimera 14-beta1-beta2-beta3
Description: binding FACS, HEK FlpIn cells.

In assay [14] the target is T4, huNav1.7α + β1 (human Nav1.7α …). Put plainly: binding FACS, HEKa/β1 cells.
Assay [15] concerns the target T5, huNav157 chimera 14. Description: binding FACS, HEK FlpIn cells. This is another data set of the same source.
Assay [16] has as its target T6, huNav157 chimera 14 + β1-β2-β3. Description: binding FACS, HEK FlpIn cells. This is another data set of the same source.
Assay [17] concerns the target T7, huNav1.7α (human Nav1.7 alpha subunit, expressed without β subunits) (human, UniProt Q15858 1-1988).
T7 construct: also called HEK293 human Nav1.7α; HEKa Nav1.7α
Put plainly: binding FACS, HEKa cells.

Assay [18] concerns the target T4, huNav1.7α + β1 (human Nav1.7α …). Put plainly: binding FACS, HEKa/β1 cells. The source holds these as a separate data set.
Assay [19] concerns the target T7, huNav1.7α (human Nav1.7 alpha subunit, …). Description: binding FACS, HEKa cells. The source holds these as a separate data set.
Assay [20] shares this target. Description: binding FACS, huNav1.7α without β; minus = lower than reference.
The target is the same in assay [21]. Description: binding FACS, huNav1.7α without β; minus = weaker than reference.

B1: F010302363 (VHH)
VHH: EVQLVESGGGVVQPGGSLRLSCAASHRAFIRDVFTGWYRQAPGKQRELVARIYEGGNTQYADSVKGRFTISRDNAKKTVYLQMNSLRPEDTALYYCLFSGTISTGREYRSGDYWGQGTLVTVSS
For B1, the Bmax in assay [1] turned out to be 18%; in assay [5], 100%; in [6] it was 96%. For the same molecule, the EC50 in assay [1] came out at 48 nM; in assay [2] it was 48 nM; in assay [3], 4.2 nM; in [4], 9.3 nM; in assay [5], 4.2 nM; in [6] it was 9.3 nM. Further, the “Qpatch IC50” value in [7] was 166 nM; in [8] it was 7 nM. The “IC50 [M], electrophysiology, HEK cells” value was 3.6e-08 M in [9] and 1.1e-08 M in [10].

B2: F010302391 (VHH)
VHH: EVQLVESGGGVVQPGGSLRLSCAASGRILRIGYMRWYRQAPGKQREFVARITGGSATGYADSVKGRFTISRDNAKNTVYLQMNSLRPEDTALYYCEALVTASVRGGSIHSGTYWGQGTLVTVSS
notes: also called F0103387G05(L11V, A14P, D23A, H37Y, G40A, A41P, D53G, D54G, D58G, N82bS, N83R, V89L, R105Q)-FLAG3-HIS6
B2: the “IC50 [M], electrophysiology on HEK huNav1.7α + β1 cells” value in assay [11] amounted to 3.2e-08 M. Also, the EC50 was determined as 2.7 nM in [12]; 2.3 nM in assay [13]; 2 nM in assay [14]; 2.7 nM in [15]; 2.3 nM in [16]; 1.9 nM in assay [17]. In addition, the EC50 was found to be 2 nM in assay [18] and 1.9 nM in assay [19]. Besides, the Bmax in assay [15] and in assay [19] was 100% throughout.

B3: F010301648 (VHH)
VHH: B2 VHH with A23D, Y37H, A40G, P41A, G53D, G54D, G58D, E96N
notes: also called F0103387G05(L11V, A14P, N82bS, N83R, V89L, E93N, R105Q); E93N
B3: the “Bmax fold change compared to reference” value in assay [20] is -4 fold. Also, the Bmax in [15] was 30%; in assay [19] it was 25%. In addition, the EC50 was 210 nM in assay [15], 3.4 nM in assay [16], 3.2 nM in assay [18] and 89 nM in [19]. For the same molecule, the “EC50 fold change compared to reference” value in assay [21] was -20 fold.
